According to US20190350938A1 (BROAD INSTITUTE, published 2019):

T1: P2D SLC16A11^REF-V5 (human, UniProt Q8NCK7 1-447)
T1 construct: bait of the proteomics study; also called P2D WT SLC16A11; WT SLC16A11
T1 sequence: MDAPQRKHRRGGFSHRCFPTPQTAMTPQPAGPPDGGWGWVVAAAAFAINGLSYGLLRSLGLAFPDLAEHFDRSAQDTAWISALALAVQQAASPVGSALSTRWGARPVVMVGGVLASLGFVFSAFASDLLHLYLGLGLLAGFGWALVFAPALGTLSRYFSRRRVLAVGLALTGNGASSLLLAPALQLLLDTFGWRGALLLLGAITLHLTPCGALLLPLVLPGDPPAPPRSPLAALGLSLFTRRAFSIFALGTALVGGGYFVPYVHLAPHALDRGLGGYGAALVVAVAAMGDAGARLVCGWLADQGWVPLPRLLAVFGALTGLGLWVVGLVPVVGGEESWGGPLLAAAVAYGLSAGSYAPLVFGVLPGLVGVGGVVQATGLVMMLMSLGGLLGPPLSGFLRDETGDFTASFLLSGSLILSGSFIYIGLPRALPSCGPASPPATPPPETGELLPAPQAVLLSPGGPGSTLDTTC

B1: Basigin (other, human, UniProt P35613-2 22-269, looked up)
chain: AAGTVFTTVEDLGSKILLTCSLNDSATEVTGHRWLKGGVVLKEDALPGQKTEFKVDSDDQWGEYSCVFLPEPMGTANIQLHGPPRVKAVKSSEHINEGETAMLVCKSESVPPVTDWAWYKITDSEDKALMNGSESRFFVSSSQGRSELHIENLNMEADPGQYRCNGTSSKGSDQAIITLRVRSHLAALWPFLGIVAEVLVLVTIIFIYEKRRKPEDVLDDDDAGSAPLKSSGQHQNDKGKNVRQRNSS
modifications: glycosylated (runs as multiple bands)
notes: Endogenous protein co-precipitated from HEK293T lysate; also called BSG; endogenous BSG
B2: Embigin (protein, human, UniProt Q6PCB8 33-327, looked up)
chain: DGSAPDSPFTSPPLREEIMANNFSLESHNISLTEHSSMPVEKNITLERPSNVNLTCQFTTSGDLNAVNVTWKKDGEQLENNYLVSATGSTLYTQYRFTIINSKQMGSYSCFFREEKEQRGTFNFKVPELHGKNKPLISYVGDSTVLTCKCQNCFPLNWTWYSSNGSVKVPVGVQMNKYVINGTYANETKLKITQLLEEDGESYWCRALFQLGESEEHIELVVLSYLVPLKPFLVIVAEVILLVATILLCEKYTQKKKKHSDEGKEFEQIEQLKSDDSNGIENNVPRHRKNESLGQ
B3: SLC16A11^T2D-V5 (other, not shown: small tags and cut ends)
chain: MPAPQRKHRRGGFSHRCFPTPQTAMTPQPAGPPDGGWGWVVAAAAFAINGLSYGLLRSLGLAFPDLAEHFDRSAQDTAWISALALAVQQAASPVGSALSTRWGARPVVMVGGILASLGFVFSAFASGLLHLYLGLGLLAGFGWALVFAPALGTLSRYFSRRRVLAVGLALTGNGASSLLLAPALQLLLDTFGWRGALLLLGAITLHLTPCGALLLPLVLPGDPPAPPRSPLAALGLSLFTRRAFSIFALGTALVGGGYFVPYVHLAPHALDRGLGGYGAALVVAVAAMGDAGARLVCGWLADQGWVPLPRLLAVFGALTGLGLWVVGLVPVVGGEESWGSPLLAAAVAYGLSAGSYAPLVFGVLPGLVGVGGVVQATGLVMMLMSLGGLLGPPLSGFLRDETGDFTASFLLSGSLILSGSFIYIGLPRALPSCGPASPPATPTPETGELLPAPQAVLLSPGGPGSTLDTTCLPTFLYKVVGKPIPNPLLGLDST

What follows are molecules tested against T1, P2D SLC16A11^REF-V5 (assay: anti-V5 IP of P2D SLC16A11REF-V5 from HEK293T lysate, iTRAQ quantitative MS; enrichment vs empty vector control IP).

Row | Molecule | B.A. logFC | BA log fold change (log fold change) | BA log fold change
1 | 7-dehydrocholesterol reductase (from UniProt Q9UBM7 1-475) (enzyme) | 1.69 logFC | 1.69 | –
2 | ADCK4 (from UniProt Q96D53 1-544) | – | 1.11 | –
3 | AGPAT6 (from UniProt Q86UL3 38-456) (enzyme) | – | 1.16 | –
4 | ATP1B3 (from UniProt P54709 1-279) | – | 1.18 | –
5 | AUP1 (from UniProt Q9Y679 1-410) | – | 1.1 | –
6 | BAG2 (from UniProt O95816 2-211) | 1.26 logFC | 1.26 | –
7 | BAG6 (from UniProt P46379 1-1162) | – | 1.08 | –
8 | BRAT1 (from UniProt Q6PJG6 1-821) | – | 1.04 | –
9 | CANX (from UniProt P27824 56-627) | 1.38 logFC | 1.38 | –
10 | DDOST (from UniProt P39656 43-456) | 1.65 logFC | 1.65 | –
11 | DNAJB4 (from UniProt Q9UDY4 2-337) | – | 1.08 | –
12 | DNAJC3 (from UniProt Q13217 32-504) | – | 1.22 | –
13 | DNAJC7 (from UniProt Q99615 2-494) | – | 1.05 | –
14 | E3 ubiquitin-protein ligase RNF5 (from UniProt Q99942 2-180) (enzyme) | 1.42 logFC | 1.42 | –
15 | EMC3 (from UniProt Q9P0I2 2-261) | 1.65 logFC | 1.65 | –
16 | FAS-associated factor 2 (from UniProt Q96CS3 2-445) | 1.23 logFC | 1.23 | –
17 | GCN1L1 (from UniProt Q92616 2-2671) | – | 1.01 | –
18 | HEATR2 (from UniProt Q86Y56 2-855) | – | 1.03 | –
19 | HSD17B12 (from UniProt Q53GQ0 1-312) (enzyme) | 1.26 logFC | 1.26 | –
20 | KIAA0368 (from UniProt J3KN16 1-2017) | – | 1.16 | –
21 | LPCAT1 (from UniProt Q8NF37 1-534) (enzyme) | – | 1.16 | –
22 | MAGED1 (from UniProt Q9Y5V3 1-834) | – | 1.09 | –
23 | PHGDH (from UniProt O43175 2-533) (enzyme) | – | 1.11 | –
24 | PPP6R3 (from UniProt Q5H9R7 1-879) | – | 1.18 | –
25 | PSMA3 (from UniProt P25788 2-255) | – | 1.09 | –
26 | PSMC3 (from UniProt P17980 1-439) | – | 1.16 | –

Row | Molecule | B.A. logFC | BA log fold change (log fold change) | BA log fold change
27 | PSMD2 (from UniProt Q13200 1-908) | – | 0.98 | –
28 | PSMD11 (from UniProt O00231 1-423) | – | 1.02 | –
29 | PSMD12 (from UniProt O00232 2-456) | – | 1.18 | –
30 | PSMD14 (from UniProt O00487 1-310) | 1.31 logFC | 1.31 | –
31 | Proteasome subunit alpha type-1 (from UniProt P25786 1-269) | 1.2 logFC | 1.2 | –
32 | QIL1 (from UniProt Q5XKP0 1-118) | – | 1.08 | –
33 | SACM1L (from UniProt Q9NTJ5 1-587) (enzyme) | 1.26 logFC | 1.26 | –
34 | SCFD1 (from UniProt Q8WVM8 2-642) | – | 1.08 | –
35 | SEC61A1 (from UniProt B4DR61 1-482) | 1.84 logFC | 1.84 | –
36 | SEC61A2 (from UniProt Q9H9S3 1-476) | 1.59 logFC | 1.59 | –
37 | SLC25A3 (from UniProt Q00325 50-361) | 1.65 logFC | 1.65 | –
38 | SLC25A22 (from UniProt Q9H936 1-323) | – | 1.2 | –
39 | STT3A (from UniProt P46977 1-705) (enzyme) | – | 1.27 | –
40 | SURF4 (from UniProt O15260 2-269) | 1.33 logFC | 1.33 | –
41 | TECR (from UniProt Q9NZ01 1-308) (enzyme) | – | 1.1 | –
42 | TIMM23B (from UniProt Q5SRD1 1-188) | 1.22 logFC | 1.22 | –
43 | TUBA1B (from UniProt P68363 1-451) | – | 1.05 | –
44 | TUBA1C (from UniProt F5H5D3 1-519) | – | 1.04 | –
45 | TUBA4A (from UniProt P68366 1-448) | – | 1.02 | –
46 | Transmembrane protein 33 (from UniProt P57088 2-247) | 1.25 logFC | 1.25 | –
47 | UBAC2 (from UniProt Q8NBM4 36-344) | 1.21 logFC | 1.21 | –
48 | VDAC2 (from UniProt P45880 1-309) | – | 1.14 | –
49 | XPO5 (from UniProt Q9HAV4 2-1204) | – | 1.14 | –
50 | B1 | – | – | 1.43 log fold change
51 | B2 | 1.55 logFC | 1.55 | –

What follows are molecules tested against B1 (assay: cell-based or functional assay).

Row | Molecule | pyruvate influx and efflux rates (pyronic FRET assay, 293T cells)
52 | B3 | ~0.5 fold of WT SLC16A11
